Experiments:
[1] = tested on: c-Met; assay: BRET analysis of c-Met dimerization on c-Met transfected CHO cells; assay type: cell-based; settings: CHO cells expressing C-Met-Rluc and C-Met-K1100A-YFP, supernatants
Excerpt: The technology BRET, used in the step iii) of the process, is well known by the person skill in the art and will be detailed in the following examples. More particularly, BRET (Bioluminescence Resonance Energy Transfer) is a non-radiative energy transfer occurring between a bioluminescent donor (Renilla Luciferase (Rluc)) and a fluorescent acceptor, a mutant of GFP (Green Fluorescent Protein) or YFP (Yellow fluorescent protein). In the present case EYFP (Enhanced Yellow Fluorescent Protein) was used. The efficacy of transfer depends on the orientation and the distance between the donor and the acceptor. Then, the energy transfer can occur only if the two molecules are in close proximity (1-10 nm). This property is used to generate protein-protein interaction assays. Indeed, in order to study the interaction between two partners, the first one is genetically fused to the Renilla Luciferase and the second one to the yellow mutant of the GFP. Fusion proteins are generally, but not obligatory, expressed in mammalian cells. In presence of its membrane permeable substrate (coelenterazine), Rluc emits blue light. If the GFP mutant is closer than 10 nm from the Rluc, an energy transfer can occur and an additional yellow signal can be detected. The BRET signal is measured as the ratio between the light emitted by the acceptor and the light emitted by the donor. So the BRET signal will increase as the two fusion proteins are brought into proximity or if a conformational change bring Rluc and GFP mutant closer.
Then antibodies inhibiting at least 50% cell proliferation were evaluated as supernatants by BRET analysis on c-Met transfected cells. For that purpose, CHO stable cell lines expressing C-Met-Rluc or C-Met-Rluc and C-Met-K1100A-YFP were generated. Cells were distributed in white 96 well microplates in DMEM-F12/FBS 5% culture medium one or two days before BRET experiments. Cells were first cultured at 37° C. with CO2 5% in order to allow cell attachment to the plate. Cells were then starved with 200 μl DMEM/well overnight. Immediately prior to the experiment, DMEM was removed and cells quickly washed with PBS. Cells were incubated in PBS in the presence or absence of antibodies to be tested or reference compounds, 10 min at 37° C. prior to the addition of coelenterazine with or without HGF in a final volume of 50 μl. […]
BRET ratio has been defined previously [Angers et al., Proc. Natl. Acad. Sci. USA, 2000, 97:3684-3689] as: [(emission at 530 nm)−(emission at 485 nm)×Cf]/(emission at 485 nm), where Cf corresponds to (emission at 530 nm)/(emission at 485 nm) for cells expressing Rluc fusion protein alone in the same experimental conditions. […] For the sake of readability, results are expressed in milliBRET units (mBU); mBU corresponds to the BRET ratio multiplied by 1000.

[2] = target: T1, c-Met (Homo sapiens, UniProt P08581); assay: Phospho c-Met ELISA assay on A549 cells; assay type: cell-based; settings: purified Mabs; for IC50, c-Met phosphorylation: 0.0015 to 30 μg/ml (0.01-200 nM); for agonist effect on c-Met phosphorylation, added alone / antagonist effect on c-Met phosphorylation in presence of HGF: A549, 30 μg/ml (200 nM), Example 18
T1 construct: endogenous in cells; host or cells: A549
T1 sequence (P08581 25-1390): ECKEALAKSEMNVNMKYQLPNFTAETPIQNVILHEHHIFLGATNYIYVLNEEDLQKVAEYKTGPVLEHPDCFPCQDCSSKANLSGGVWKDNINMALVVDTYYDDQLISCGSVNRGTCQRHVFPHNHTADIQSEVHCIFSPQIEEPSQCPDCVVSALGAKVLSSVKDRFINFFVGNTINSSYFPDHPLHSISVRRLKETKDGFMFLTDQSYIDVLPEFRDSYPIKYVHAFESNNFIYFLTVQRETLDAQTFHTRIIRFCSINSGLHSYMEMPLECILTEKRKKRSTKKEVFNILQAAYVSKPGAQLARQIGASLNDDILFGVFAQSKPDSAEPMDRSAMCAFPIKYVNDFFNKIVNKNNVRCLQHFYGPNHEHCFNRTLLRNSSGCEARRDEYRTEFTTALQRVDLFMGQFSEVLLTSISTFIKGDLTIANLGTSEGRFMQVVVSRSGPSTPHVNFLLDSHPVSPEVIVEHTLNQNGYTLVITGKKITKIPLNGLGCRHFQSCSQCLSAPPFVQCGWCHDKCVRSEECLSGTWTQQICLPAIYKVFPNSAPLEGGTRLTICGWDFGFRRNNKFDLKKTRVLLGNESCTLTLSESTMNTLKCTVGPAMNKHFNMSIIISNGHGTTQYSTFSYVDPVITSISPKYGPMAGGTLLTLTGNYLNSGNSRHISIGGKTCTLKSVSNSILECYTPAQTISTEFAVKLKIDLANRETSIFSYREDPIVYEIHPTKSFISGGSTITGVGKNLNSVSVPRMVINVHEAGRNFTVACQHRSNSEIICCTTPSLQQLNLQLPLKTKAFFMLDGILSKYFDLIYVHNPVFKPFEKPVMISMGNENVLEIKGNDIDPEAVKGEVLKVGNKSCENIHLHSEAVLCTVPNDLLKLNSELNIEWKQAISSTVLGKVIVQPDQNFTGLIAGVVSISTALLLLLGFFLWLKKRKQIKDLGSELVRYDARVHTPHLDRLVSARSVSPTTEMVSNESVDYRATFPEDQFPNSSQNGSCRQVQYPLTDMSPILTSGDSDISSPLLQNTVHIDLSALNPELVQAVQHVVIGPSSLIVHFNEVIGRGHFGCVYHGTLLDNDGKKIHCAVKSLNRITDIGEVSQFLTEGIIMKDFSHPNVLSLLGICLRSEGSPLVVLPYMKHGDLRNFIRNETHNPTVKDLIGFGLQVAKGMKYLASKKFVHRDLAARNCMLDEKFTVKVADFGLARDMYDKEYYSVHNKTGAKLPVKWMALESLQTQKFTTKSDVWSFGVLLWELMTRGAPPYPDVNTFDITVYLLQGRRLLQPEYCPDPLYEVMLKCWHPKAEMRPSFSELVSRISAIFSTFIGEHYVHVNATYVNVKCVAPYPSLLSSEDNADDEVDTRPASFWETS
Procedure: To determine the activity of anti-c-Met antibodies on c-Met phosphorylation a phospho c-Met ELISA assay was set-up. Briefly 500 000 A549 cells were seeded in each well of 6-well plates in F12K medium+10% FCS. 16 hours before HGF addition (100 ng/ml), cells were starved and each antibody to be tested was added at a final concentration of 30 μg/ml 15 minutes before ligand stimulation. 15 minutes after HGF addition, cold lysis buffer was added, cells were scraped and cell lysates collected and centrifuged at 13 000 rpm for 10 min at 4° C. Supernatants were quantified with a BCA kit (Pierce) and stored at −20° C. For ELISA assay, a goat anti-c-Met antibody (R&D ref. AF276) was used as a capture antibody (coating overnight at 4° C.) and after a saturation step (1 h at RT) with a TBS-BSA 5% buffer, […] of protein from the different cell lysates was added to each well of the 96-well plate. After a 90 minute-incubation time at RT, plates were washed four times and an anti-phospho-c-Met antibody (Rabbit anti-pY1230-1234-1235 c-Met) was added. After an additional 1 hour incubation time and 4 washes an anti-rabbit-HRP (Biosource) was added for 1 hour at RT and then Luminol substrate was added before evaluation the luminescence with a Mithras device. […] As described in the various examples presented in this patent, this weak basal effect has no consequences on the activity of antibodies in other in vitro and in vivo tests.
In example 3, the effect of anti-c-Met Mabs on phosphorylation was assessed with dosed supernatants from each hybridoma to be evaluated. The test has been performed again with purified 11E1 and 224G11 Mabs that have been evaluated either at a final concentration of 30 μg/ml (200 nM) or at a dose range from 0.0015 to 30 μg/ml (0.01-200 nM) in order to determine the IC50 of each antibody. The protocol used is the same as the one described in example 3.

[3] = tested on: SK-HEP-1 cells; assay: Three-dimensional tubulogenesis assay; assay type: cell-based; settings: SK-HEP-1, antibody 10 μg/ml; for inhibitory effect on tube formation in presence of HGF: HGF 100 ng/ml; for agonist effect on tube formation, alone: no HGF
Procedure: SK-HEP-1 cells were seeded at 1·10^4 cells/well in a 24-well plate in DMEM with 10% FCS/Matrigel (50/50) and incubated for 30 min before addition, at the same time, of HGF (100 ng/ml) and antibodies to be tested (10 μg/ml). After 7 days incubation, cells were assessed for tube formation visually. Each tested condition was tested as a triplicate and 3 independent experiments were performed.

[4] = target: T2, recombinant c-Met-Extra-Cellular Domain (ECD) fused to an human IgG Fc domain (Homo sapiens, UniProt P08581); assay: Determination of affinity constants (KD) by Biacore analysis; assay type: binding; settings: text summary of table 4; read-out: affinity for recombinant c-Met-Fc fusion protein
T2 construct: recombinant c-Met-Extra-Cellular Domain (ECD) fused to an human IgG Fc domain (R&D Systems) as antigen; purchased R&D Systems
T2 sequence (P08581 25-932 limits assumed): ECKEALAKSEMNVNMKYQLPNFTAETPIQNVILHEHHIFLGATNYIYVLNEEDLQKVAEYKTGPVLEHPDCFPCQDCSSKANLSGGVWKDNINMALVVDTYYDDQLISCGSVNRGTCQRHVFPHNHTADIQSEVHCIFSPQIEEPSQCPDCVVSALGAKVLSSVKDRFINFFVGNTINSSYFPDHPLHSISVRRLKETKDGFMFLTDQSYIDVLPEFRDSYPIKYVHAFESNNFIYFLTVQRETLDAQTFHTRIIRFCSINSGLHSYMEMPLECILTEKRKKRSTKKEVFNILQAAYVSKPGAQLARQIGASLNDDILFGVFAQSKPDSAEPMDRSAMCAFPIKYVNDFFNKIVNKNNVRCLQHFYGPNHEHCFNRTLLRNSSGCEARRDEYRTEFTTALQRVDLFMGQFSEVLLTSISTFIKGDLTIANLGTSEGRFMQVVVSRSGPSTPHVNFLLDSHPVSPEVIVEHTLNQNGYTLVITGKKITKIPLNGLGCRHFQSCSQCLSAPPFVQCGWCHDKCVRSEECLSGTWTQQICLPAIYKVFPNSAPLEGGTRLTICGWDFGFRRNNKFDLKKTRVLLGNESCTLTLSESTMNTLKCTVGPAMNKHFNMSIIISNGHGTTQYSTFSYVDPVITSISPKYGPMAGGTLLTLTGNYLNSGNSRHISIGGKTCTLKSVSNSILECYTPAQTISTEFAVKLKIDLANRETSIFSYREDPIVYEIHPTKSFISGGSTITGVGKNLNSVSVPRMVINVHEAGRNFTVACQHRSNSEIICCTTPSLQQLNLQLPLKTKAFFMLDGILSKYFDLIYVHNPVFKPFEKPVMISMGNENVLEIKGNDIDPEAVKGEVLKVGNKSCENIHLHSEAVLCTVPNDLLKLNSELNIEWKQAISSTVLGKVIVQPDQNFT
Excerpt: The binding affinity of purified 11E1 and 224G11 antibodies was investigated by BIAcore X using recombinant c-Met-Extra-Cellular Domain (ECD) fused to an human IgG Fc domain (R&D Systems) as antigen (MW=129 kDa). As both c-Met-Fc fusion proteins and antibodies are bivalent compounds, Fab fragments of mAbs 11E1 and 224G11 (MW=50 kDa) were generated by papain cleavage, purified and used in this assay to avoid interference with avidity parameter. For the assay, an anti-Tag histidine capture antibody was coated on CM5 sensorchips. The running buffer was HBS-EP, the flow rate was 30 μl/min and the test was performed at 25° C. Soluble c-Met (ECD_M1)2-Fc-(HHHHHH)2 antigen was captured on the sensorchip (around 270 RU), and the antibodies to be tested were used in solution as analytes. The sensorship was regenerated using Glycine, HCl pH 1.5 buffer on both flowcells for half a minute.

Chain of c-Met (P08581 25-307 limits assumed): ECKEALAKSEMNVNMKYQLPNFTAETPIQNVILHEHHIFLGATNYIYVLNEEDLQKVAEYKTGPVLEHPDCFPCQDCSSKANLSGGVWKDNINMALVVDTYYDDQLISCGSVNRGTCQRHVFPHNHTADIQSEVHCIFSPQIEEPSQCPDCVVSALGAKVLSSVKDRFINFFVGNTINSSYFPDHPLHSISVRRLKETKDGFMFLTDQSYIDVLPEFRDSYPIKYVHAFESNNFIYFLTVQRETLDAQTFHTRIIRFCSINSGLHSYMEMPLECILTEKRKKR
Chain of c-Met (P08581 308-932 limits assumed): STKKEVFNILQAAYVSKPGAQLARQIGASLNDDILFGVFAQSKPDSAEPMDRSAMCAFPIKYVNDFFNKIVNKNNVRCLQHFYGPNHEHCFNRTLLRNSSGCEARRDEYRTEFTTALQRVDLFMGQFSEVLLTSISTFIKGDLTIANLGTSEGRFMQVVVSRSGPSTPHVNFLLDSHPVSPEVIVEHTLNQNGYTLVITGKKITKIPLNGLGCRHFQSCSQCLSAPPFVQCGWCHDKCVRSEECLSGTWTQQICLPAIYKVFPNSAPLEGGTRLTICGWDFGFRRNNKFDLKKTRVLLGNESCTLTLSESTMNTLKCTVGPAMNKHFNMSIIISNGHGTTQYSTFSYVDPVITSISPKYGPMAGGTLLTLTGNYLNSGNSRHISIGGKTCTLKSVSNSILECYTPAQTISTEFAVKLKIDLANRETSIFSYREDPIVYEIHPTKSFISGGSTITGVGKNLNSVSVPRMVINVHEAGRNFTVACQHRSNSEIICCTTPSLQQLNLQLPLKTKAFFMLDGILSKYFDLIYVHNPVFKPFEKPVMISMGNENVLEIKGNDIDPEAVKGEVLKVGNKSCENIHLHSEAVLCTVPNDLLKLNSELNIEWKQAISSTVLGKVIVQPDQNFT

B1: 224G11: murine anti-c-Met monoclonal antibody, IgG1 kappa; heavy chain SEQ ID No. 18, light chain SEQ ID No. 21 (antibody, V domains shown)
VH: EVQLQQSGPELVKPGASVKISCKTSGYIFTAYTMHWVRQSLGESLDWIGGIKPNNGLANYNQKFKGKATLTVDKSSSTAYMDLRSLTSEDSAVYYCARSEITTEFDYWGQGTALTVSS
VL: DIVLTQSPASLAVSLGQRATISCRASESVDSYANSFMHWYQQKPGQPPKLLIYRASNLESGIPARFSGSGSRTDFTLTINPVEADDVATYYCQQSKEDPLTFGSGTKLEMK
modifications: mus musculus
- inhibition of dimerization [1]: 32%
- IC50, c-Met phosphorylation [2]: nanomolar
- agonist effect on c-Met phosphorylation, added alone [2]: no agonist effect
- antagonist effect on c-Met phosphorylation in presence of HGF [2]: 75%
- inhibitory effect on tube formation in presence of HGF [3]: partial but significant inhibition
- agonist effect on tube formation, alone [3]: No agonistic effect
- Kd [4]: ~0.04 nM

B2: 11E1: murine anti-c-Met monoclonal antibody, IgG1 kappa; heavy chain SEQ ID No. 62, light chain SEQ ID No. 63 (antibody, V domains shown)
VH: QVQLQQSGAELAKPGASVKMSCKASGYTFTSYWMNWVKQRPGQGLEWIGYINPTTGSTDYNQKLKDKATLTADKSSNTAYMQLSSLTSEDSAVYYCAIGGYGSWFAYWGQGTLVTVSA
VL: QIVLTQSPAIMSASPGEKVTLTCSASSSVSSTYLYWYQQKPGSSPKLWIYTTSILASGVPARFSGSGSGTSYSLTISSMETEDAASYFCHQWSSYPFTFGSGTKLDIK
modifications: mus musculus
- inhibition of dimerization [1]: 69%
- IC50, c-Met phosphorylation [2]: nanomolar
- agonist effect on c-Met phosphorylation, added alone [2]: no agonist effect
- antagonist effect on c-Met phosphorylation in presence of HGF [2]: 87%
- inhibitory effect on tube formation in presence of HGF [3]: full inhibitory effect
- agonist effect on tube formation, alone [3]: No agonistic effect
- Kd [4]: ~0.04 nM

B3: 223C4: murine anti-c-Met monoclonal antibody, IgG1 kappa; heavy chain SEQ ID No. 20, light chain SEQ ID No. 23 (antibody, V domains shown)
VH: EVLLQQSGPELVKPGASVKIPCKASGYTFTDYNMDWVKQSHGMSLEWIGDINPNNGGTIFNQKFKGKATLTVDKSSSTAYMELRSLTSEDTAVYYCARGRYVGYYYAMDYWGQGTSVTVSS
VL: DIQMTQSPASLSVSVGETVTITCRASENIYSNLAWYQQKQGKSPQLLVYAATNLVDGVPSRFSGSGSGTQYSLKINSLQSEDFGSYYCQHFWGPPYTFGGGTKLEIK
modifications: mus musculus
- inhibition of dimerization [1]: 55%
- inhibitory effect on tube formation in presence of HGF [3]: full inhibitory effect
- agonist effect on tube formation, alone [3]: No agonistic effect
